In publication doi:10.1101/2024.03.26.586731:

Key:
Experiment in all cases: high-speed atomic force microscopy
[1] = target: IgG4-DNP-E430G (human)
[2] = target: IgG2-DNP-E430G (human)
[3] = target: IgG1-DNP-E430G (human)
[4] = target: IgG3-DNP-E430G (human)

Substance IgG4-DNP-E430G (antibody) has a stoichiometry N [1] of less than 6.

Substance IgG2-DNP-E430G (antibody) has a stoichiometry N [2] of less than 6.

IgG1-DNP-E430G (antibody) showed a stoichiometry N [3] of less than 6.

IgG3-DNP-E430G (antibody) was tested, and the stoichiometry N [4] was less than 6.
